Laboratory results from doi:10.1101/2022.08.02.502465.
Read-outs that look alike come from different tables or passages of the source.

Columns and labels:
[1] = molecular target: T1, DNA polymerase I (Pol I) (Escherichia coli, UniProt P00582 1-928); assay: BLI
[2] = molecular target: Pol I endo-mut (endonuclease-dead full-length Pol I) (Escherichia coli, UniProt P00582 1-928, D115A;D140A); assay: cryo-EM structure
[3] = molecular target: Pol I Klenow fragment (Pol IKL) (Escherichia coli, UniProt P00582 328-928); assay: cryo-EM structure
[4] = molecular target: T1, DNA polymerase I (Pol I); assay: BLI; remark: listed apart in the source

B1: primed BLI substrate (mixed)
DNA 1: CGCTCACTGGCCGTCGTTTTACAACGTCGTGACTGGGAAAACCCTGGCGTTACC
DNA 2: ACGACGTTGTAAAACGACGGCCAGTGAGCG
Kd [1]: 42 ± 5 nM

B2: flapped Okazaki fragment DNA (cryo-EM) (mixed)
DNA 1: CGCTCACTGGCCGTCGTTTTACAACGTCGTGACTGGGAAAACCCTGGCGTTACC
DNA 2: GGTAACGCCAGGGTTTTCCCAGTC
DNA 3: TTTTTTACGACGTTGTAAAACGACGGCCAGTGAGCG
binding result [2]: binds | binding result [3]: binds

B3: continuous BLI substrate (dsDNA)
DNA 1: GGTAACGCCAGGGTTTTCCCAGTCACGACGTTGTAAAACGACGGCCAGTGAGCG
DNA 2: CGCTCACTGGCCGTCGTTTTACAACGTCGTGACTGGGAAAACCCTGGCGTTACC
Kd [4]: 285 ± 5 nM
